Results on one substance are retold here after US7541156B1, “Method of identifying antinociceptive compounds using protease activated receptor-2” (priority 2000, dated 2009).

One test deals with T1, PAR-1 (Homo sapiens, UniProt P25116).
T1 sequence (P25116 22-425): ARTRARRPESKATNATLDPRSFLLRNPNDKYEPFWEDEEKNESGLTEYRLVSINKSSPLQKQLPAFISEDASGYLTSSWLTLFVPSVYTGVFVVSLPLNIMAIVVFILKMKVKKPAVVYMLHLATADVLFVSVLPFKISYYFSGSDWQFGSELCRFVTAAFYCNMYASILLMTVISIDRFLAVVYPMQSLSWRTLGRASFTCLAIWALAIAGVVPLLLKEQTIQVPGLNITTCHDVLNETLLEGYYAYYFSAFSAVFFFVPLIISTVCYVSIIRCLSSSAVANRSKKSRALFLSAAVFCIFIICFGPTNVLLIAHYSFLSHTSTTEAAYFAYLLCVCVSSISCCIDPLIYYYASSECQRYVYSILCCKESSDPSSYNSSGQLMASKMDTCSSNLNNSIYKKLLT
As to conditions: Blackhart et al. 1996; cited from earlier work.

The target of test [1] is T2, PAR-2 (Homo sapiens, UniProt P55085).
T2 sequence (P55085 26-397): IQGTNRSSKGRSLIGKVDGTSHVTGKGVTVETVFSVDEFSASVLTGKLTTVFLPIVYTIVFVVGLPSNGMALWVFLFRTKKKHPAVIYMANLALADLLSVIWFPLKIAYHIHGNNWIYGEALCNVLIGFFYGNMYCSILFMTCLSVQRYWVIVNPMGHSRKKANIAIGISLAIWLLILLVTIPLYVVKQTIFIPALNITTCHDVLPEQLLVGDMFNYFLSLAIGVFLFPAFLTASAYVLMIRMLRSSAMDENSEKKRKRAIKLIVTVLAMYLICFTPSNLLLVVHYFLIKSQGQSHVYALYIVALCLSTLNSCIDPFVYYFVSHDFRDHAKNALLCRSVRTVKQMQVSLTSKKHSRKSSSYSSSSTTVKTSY
The note with it: Blackhart et al. 1996; cited from earlier work.

For test [2], the target named is T3, PAR-2 (Rattus norvegicus, UniProt Q63645).
T3 construct: assessing the response of primary neuronal cultures to trypsin and AcPep; endogenous in cells; host or cells: primary cultures of adult Sprague-Dawley rat DRG neurons
T3 sequence (Q63645 26-397): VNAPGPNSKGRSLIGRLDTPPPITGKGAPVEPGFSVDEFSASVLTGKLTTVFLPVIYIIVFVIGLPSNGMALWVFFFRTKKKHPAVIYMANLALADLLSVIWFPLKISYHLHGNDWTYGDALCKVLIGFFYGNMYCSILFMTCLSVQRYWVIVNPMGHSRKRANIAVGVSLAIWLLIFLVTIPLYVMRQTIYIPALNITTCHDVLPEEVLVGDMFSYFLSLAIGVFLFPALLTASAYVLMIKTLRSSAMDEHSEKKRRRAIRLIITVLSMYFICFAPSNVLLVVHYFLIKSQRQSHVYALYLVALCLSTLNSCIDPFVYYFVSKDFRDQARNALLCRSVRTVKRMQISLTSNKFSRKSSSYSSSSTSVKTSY
Nature of the test: Intracellular Ca2+ response of primary neuronal cultures. The class given is cell-based. The note with it: primary neuronal cultures of adult rat DRGs. From the text:
In the results which follow, it is shown that activated proteases can have direct effects on sensory neurons, mediated by specific receptors. PAR-1 and PAR-2 are present in rat DRGs (Young et al. 2000). The presence of one of these receptors, PAR-2, in sensory neurons is first confirmed by finding evidence of mRNA and protein expression in adult rat thoracic DRGs. The functional implications of PAR-2 expression are then examined by assessing the response of primary neuronal cultures to trypsin and AcPep. Both agonists increased intracellular Ca^2+ confirming previously reported findings that a functional PAR 2 receptor is present in adult rat DRGs (Steinhoff et al. 2000). Trypsin stimulates both PAR-1 and PAR-2 and therefore an increase in intracellular Ca^2+ can be caused by activation of the two different receptors. […] Therefore the increased intracellular Ca^2+ response to AcPep reflects specific PAR-2 mediated activation.
Cell Culture. Primary cultures of rat DRG neurons were prepared from male adult Sprague Dawley rats (200-250 gm). Following enzymatic treatment and dissociation, neurons were spun through a percoll cushion (Hofbauer et al. 1998) and were plated at a density of 10,000-20,000 neurons/well of a 48 well tissue culture plate. […]

Another test addresses T4, mouse Par2 (Mus musculus, UniProt P55086).
T4 construct: host or cells: frog oocytes
T4 sequence (P55086 26-399): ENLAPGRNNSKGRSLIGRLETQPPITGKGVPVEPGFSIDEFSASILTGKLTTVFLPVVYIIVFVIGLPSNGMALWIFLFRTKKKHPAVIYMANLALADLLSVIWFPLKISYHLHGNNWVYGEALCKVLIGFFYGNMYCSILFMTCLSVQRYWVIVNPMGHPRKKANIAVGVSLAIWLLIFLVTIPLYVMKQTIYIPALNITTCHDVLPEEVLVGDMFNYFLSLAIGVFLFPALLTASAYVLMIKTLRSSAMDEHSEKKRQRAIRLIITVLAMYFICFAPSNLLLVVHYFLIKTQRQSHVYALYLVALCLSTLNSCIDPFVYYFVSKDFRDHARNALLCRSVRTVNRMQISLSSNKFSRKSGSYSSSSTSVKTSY
The note with it: expressed in frog oocytes; cited from earlier work.

“trypsin: serine protease that stimulates both PAR-1 and PAR-2”: the “activation of PAR-1” value with PAR-1 is on record as “stimulates”. The “activation of PAR-2” value with PAR-2 [1] is given as “stimulates”. In the test with PAR-2 [2], the “intracellular Ca2+” value is listed as “increased”. Further, in the test with mouse Par2, the “receptor activation, in words” value is listed as “could be activated with nanomolar concentrations”.
